Reference: patent US20250207119A1

Columns and labels:
Experiment in all cases: cell-based or functional assay
[1] = target: Human ADAM10 from R & D Systems (human) (UniProt O14672)
[2] = target: ADAM17 from R & D Systems (UniProt P78536)
MMP 14 = MMP 14 (UniProt P50281)
MMP 9 = MMP 9 (UniProt P14780)
ADAM9 from R & D Systems = ADAM9 from R & D Systems (UniProt Q13443)
MMP 3 = MMP 3 (UniProt P08254)
MMP 2 = MMP 2 (UniProt P08253)
[3] = target: Meprin from R & D Systems
MMP 12 = MMP 12 (UniProt P39900)
MMP 12, sequence (P39900 17-470 limits assumed): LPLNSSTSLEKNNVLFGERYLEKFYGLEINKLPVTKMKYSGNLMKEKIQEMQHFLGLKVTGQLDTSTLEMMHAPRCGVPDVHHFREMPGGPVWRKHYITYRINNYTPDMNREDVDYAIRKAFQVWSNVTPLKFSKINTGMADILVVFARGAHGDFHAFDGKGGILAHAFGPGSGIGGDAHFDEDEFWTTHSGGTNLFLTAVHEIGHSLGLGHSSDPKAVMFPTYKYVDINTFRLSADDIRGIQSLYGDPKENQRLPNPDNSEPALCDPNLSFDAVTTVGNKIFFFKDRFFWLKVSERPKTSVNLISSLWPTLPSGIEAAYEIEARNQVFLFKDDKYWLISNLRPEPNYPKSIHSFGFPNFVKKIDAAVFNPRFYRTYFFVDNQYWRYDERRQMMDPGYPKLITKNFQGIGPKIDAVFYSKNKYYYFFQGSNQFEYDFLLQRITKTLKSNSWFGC

Human ADAM10 from R & D Systems (human), sequence (O14672 214-672 limits assumed): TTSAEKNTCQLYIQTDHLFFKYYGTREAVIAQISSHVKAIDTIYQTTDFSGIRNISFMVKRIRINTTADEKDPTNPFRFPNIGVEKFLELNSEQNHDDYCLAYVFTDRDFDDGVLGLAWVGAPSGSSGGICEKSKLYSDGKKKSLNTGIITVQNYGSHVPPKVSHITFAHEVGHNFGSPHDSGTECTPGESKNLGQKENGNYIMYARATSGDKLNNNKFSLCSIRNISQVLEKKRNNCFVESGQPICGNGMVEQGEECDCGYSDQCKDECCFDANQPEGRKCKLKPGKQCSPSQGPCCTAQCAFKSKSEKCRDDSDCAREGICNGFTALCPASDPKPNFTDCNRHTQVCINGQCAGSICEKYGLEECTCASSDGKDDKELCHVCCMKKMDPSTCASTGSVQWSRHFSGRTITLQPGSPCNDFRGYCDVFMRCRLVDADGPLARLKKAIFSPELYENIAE
MMP 3, sequence (P08254 18-477 limits assumed): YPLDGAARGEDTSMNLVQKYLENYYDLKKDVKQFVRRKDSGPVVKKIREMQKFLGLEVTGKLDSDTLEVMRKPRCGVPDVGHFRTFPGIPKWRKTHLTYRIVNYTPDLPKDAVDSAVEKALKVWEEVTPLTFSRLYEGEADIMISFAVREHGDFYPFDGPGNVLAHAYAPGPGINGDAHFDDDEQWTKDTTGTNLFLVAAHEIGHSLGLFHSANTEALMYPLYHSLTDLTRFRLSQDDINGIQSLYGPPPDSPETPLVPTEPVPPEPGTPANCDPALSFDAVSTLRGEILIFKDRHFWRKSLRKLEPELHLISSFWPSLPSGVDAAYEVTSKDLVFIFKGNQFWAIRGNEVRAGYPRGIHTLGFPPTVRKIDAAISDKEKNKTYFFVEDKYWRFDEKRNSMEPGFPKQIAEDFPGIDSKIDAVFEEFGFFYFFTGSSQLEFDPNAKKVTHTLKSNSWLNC
MMP 9, sequence (P14780 20-707 limits assumed): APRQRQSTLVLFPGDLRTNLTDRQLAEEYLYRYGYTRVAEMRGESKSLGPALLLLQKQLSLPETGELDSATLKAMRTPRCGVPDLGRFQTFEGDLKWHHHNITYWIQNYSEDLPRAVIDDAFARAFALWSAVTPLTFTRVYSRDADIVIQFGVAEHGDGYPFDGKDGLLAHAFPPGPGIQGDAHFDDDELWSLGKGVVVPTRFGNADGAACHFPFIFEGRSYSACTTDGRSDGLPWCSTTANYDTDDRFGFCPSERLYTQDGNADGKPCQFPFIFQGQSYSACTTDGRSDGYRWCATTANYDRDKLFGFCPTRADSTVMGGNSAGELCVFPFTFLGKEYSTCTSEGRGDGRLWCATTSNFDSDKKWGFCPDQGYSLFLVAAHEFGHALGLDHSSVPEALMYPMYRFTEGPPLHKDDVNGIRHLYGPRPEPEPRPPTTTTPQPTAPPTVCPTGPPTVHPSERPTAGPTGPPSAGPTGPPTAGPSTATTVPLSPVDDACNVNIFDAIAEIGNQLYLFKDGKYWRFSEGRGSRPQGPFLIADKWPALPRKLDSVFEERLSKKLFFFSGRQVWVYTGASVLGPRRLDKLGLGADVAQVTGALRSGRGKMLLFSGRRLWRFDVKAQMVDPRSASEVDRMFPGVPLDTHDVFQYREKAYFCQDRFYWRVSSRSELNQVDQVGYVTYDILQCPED
ADAM9 from R & D Systems, sequence (Q13443 29-697 limits assumed): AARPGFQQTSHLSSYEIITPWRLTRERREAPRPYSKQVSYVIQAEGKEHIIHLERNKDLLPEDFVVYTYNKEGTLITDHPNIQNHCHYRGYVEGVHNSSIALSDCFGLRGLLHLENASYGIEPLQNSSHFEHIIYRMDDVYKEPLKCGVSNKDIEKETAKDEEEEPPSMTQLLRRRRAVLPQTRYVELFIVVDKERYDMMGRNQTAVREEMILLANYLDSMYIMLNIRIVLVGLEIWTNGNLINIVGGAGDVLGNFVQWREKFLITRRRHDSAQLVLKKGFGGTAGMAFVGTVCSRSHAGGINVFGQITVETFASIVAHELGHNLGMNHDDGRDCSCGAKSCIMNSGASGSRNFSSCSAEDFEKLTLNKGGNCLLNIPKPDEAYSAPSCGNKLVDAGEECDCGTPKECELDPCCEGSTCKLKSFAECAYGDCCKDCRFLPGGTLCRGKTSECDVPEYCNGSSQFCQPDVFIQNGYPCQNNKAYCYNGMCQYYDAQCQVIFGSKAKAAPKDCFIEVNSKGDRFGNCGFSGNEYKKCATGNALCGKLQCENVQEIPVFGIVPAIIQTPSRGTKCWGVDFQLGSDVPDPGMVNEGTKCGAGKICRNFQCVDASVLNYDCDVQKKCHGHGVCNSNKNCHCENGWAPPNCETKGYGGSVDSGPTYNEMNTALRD
ADAM17 from R & D Systems, sequence (P78536 215-671 limits assumed): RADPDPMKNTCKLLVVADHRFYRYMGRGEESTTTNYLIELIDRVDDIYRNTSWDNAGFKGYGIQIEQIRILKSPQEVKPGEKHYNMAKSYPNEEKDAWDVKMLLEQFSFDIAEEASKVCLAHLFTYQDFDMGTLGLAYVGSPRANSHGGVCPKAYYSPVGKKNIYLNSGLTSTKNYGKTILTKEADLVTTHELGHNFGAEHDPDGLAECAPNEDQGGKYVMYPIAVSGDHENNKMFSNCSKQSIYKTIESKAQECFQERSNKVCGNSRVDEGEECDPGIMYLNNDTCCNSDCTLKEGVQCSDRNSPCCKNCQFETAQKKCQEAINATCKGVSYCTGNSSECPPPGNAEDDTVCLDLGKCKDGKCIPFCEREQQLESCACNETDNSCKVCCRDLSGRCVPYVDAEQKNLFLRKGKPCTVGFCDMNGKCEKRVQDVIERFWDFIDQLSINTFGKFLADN
MMP 2, sequence (P08253 30-660 limits assumed): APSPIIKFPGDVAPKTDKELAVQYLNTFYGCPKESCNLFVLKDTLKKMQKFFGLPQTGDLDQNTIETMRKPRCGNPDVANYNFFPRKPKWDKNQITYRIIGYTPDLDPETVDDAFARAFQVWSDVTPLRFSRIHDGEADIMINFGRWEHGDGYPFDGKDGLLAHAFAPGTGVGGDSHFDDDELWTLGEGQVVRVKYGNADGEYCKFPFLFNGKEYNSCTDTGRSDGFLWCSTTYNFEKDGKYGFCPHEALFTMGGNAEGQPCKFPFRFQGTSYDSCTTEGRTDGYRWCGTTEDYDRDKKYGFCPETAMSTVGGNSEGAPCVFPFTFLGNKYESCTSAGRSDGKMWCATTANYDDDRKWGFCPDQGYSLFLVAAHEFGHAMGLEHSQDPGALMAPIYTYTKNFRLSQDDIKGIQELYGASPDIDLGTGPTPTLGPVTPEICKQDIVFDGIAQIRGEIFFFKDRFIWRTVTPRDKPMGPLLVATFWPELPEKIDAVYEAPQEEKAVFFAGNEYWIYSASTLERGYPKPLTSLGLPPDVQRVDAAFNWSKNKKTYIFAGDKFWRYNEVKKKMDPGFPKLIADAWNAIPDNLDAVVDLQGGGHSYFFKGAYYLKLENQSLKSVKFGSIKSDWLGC

IC50 (nM), inhibition of ADAM10 cleavage of the fluorescent substrate PEPDAB064 [1]: 17 nM | percent inhibition of ADAM17 activity [2]: 28 % at 8 µM | percent inhibition of MMP activity (PEPDAB008 substrate) (MMP 14): 0 % at 8 µM | percent inhibition of MMP activity (PEPDAB008 substrate) (MMP 9): 0 % at 8 µM | percent inhibition of ADAM9 activity (ADAM9 from R & D Systems): 0 % at 8 µM | percent inhibition of MMP activity (PEPDAB008 substrate) (MMP 3): 0 % at 8 µM | percent inhibition of MMP activity (PEPDAB008 substrate) (MMP 2): 0 % at 8 µM | IC50 (nM), inhibition of meprin cleavage of the fluorescent substrate PEPDAB022 [3]: 185 nM | percent inhibition of MMP activity (PEPDAB008 substrate) (MMP 12): 0 % at 8 µM
Substance: SEQ ID NO: 1 (human wild type ADAM10 prodomain peptide, amino acids 23-211 of NP_001101.1)
